Assay results from PMC8552062, “Contributions of UDP-Glucuronosyltransferases to Human Hepatic and Intestinal Metabolism of Ticagrelor and Inhibition of UGTs and Cytochrome P450 Enzymes by Ticagrelor and its Glucuronidated Metabolite” (Frontiers in Pharmacology, 2021).

Substrate: CCCSc1nc(N[C@@H]2C[C@H]2c2ccc(F)c(F)c2)c2nnn([C@@H]3C[C@H](OCCO)[C@@H](O)[C@H]3O)c2n1
Assay: Ticagrelor glucuronidation by recombinant human UGT1A4
Assay type: in vitro ADME
Details: other: recombinant UGT1A4, Michaelis-Menten kinetics; pH 7.4; 37.0 °C
Protocol: Ticagrelor glucuronidation was investigated in an in vitro incubation system by using HLM, HIM, and recombinant human UGTs. The incubation system consisted of enzyme sources (HLM, HIM, or human recombinant UGTs), various concentrations of ticagrelor (dissolved in 50% methanol, 1% v/v, 1, 2, 5, 10, 20, 50, 100, 200, 500 μM of final concentration), alamethicin (50 μg/mg protein), 5 mM MgCl2, 100 mM tris-HCL buffer (pH 7.4), and 5 mM UDPGA in a total volume of 100 μl. Alamethicin is a pore-forming polypeptide used to activate UGTs in HLM and HIM ([Fisher et al., 2000]). Preliminary studies were conducted to determine the optimal protein concentrations and incubation times. Linear conditions of ticagrelor-O-Glu formation from ticagrelor, i.e., HLM, 0.2 mg of protein/ml and 60 min, HIM, 0.2 mg of protein/ml and 60 min, and recombinant human UGTs, 0.2 mg of protein/ml and 60 min were selected. The incubation mixture without UDPGA was placed on ice for 15 min to activate UGT by alamethicin. After pre-incubation for 5 min at 37°C, the reactions were started by the addition of UDPGA. After another 60 min of incubation at 37°C, the reaction was terminated by adding 100 μl of acetonitrile containing internal standard (diazepam). The mixture vortexed for 2 min and then centrifuged at 14,000 rpm for 10 min at 4°C. The resulting supernatant was injected into a liquid chromatography tandem mass spectrometry (LC-MS/MS, Applied Biosystems/MDS Sciex, Foster City, CA) system for the detection of ticagrelor-O-Glu.
Kinetic analyses were performed using the mean values of triplicate determinations with either pooled HLM, HIM, or recombinant human UGTs. All data were analyzed by nonlinear regression analysis using the GraphPad Prism 6 (GraphPad Software Inc., CA, United States). Michaelis-Menten kinetics (Eq. 1) or substrate inhibition kinetics (Eq. 2) ([Houston and Kenworthy, 2000]) were tested to determine the optimal model for describing the data. […] Intrinsic clearance (CLint) was calculated by dividing Vmax by Km.

B1: recombinant human UGT1A4 (Homo sapiens) (protein)
chain: GKVLVVPTDGSPWLSMREALRELHARGHQAVVLTPEVNMHIKEEKFFTLTAYAVPWTQKEFDRVTLGYTQGFFETEHLLKRYSRSMAIMNNVSLALHRCCVELLHNEALIRHLNATSFDVVLTDPVNLCGAVLAKYLSIPAVFFWRYIPCDLDFKGTQCPNPSSYIPKLLTTNSDHMTFLQRVKNMLYPLALSYICHTFSAPYASLASELFQREVSVVDLVSYASVWLFRGDFVMDYPRPIMPNMVFIGGINCANGKPLSQEFEAYINASGEHGIVVFSLGSMVSEIPEKKAMAIADALGKIPQTVLWRYTGTRPSNLANNTILVKWLPQNDLLGHPMTRAFITHAGSHGVYESICNGVPMVMMPLFGDQMDNAKRMETKGAGVTLNVLEMTSEDLENALKAVINDKSYKENIMRLSSLHKDRPVEPLDLAVFWVEFVMRHKGAPHLRPAAHDLTWYQYHSLDVIGFLLAVVLTVAFITFKCCAYGYRKCLGKKGRVKKAHKSKTH
notes: purchased BD Gentest; host or cells: baculovirus-infected insect cells
Km: 10.28 µM
Vmax: 3.6e-07 µmol/min/mg
Vmax/Km: 0.04 µL/min/mg
